Assay [1] has as its system APC/C^Cdh1. Put plainly: APC/C^Cdh1 enzyme assay (ubiquitination of 35S-Pds1). The class given is biochemical, Saccharomyces cerevisiae. Conditions: 220 μM peptide; 35S-Pds1 substrate; time course 0-60 minutes; vs buffer; n = 3. How it is done:
Full-length, radio-labeled protein purifications were preformed as previously described. ^35S-Pds1 was prepared in a 500 μL IVT/T (In Vitro Transcription/Translation) reaction (Promega, USA), which contained 400 μL rabbit reticulocyte lysate, 20 μL of L-^35S-methionine (PerkinElmer, USA), 10 μg of plasmid DNA, and the remaining volume as nuclease-free ddH2O as recommended by the manufacturer. The reaction mixture was incubated for 2 hours at room temperature and gently mixed every 30 minutes. The reaction was added to pre-equilibrated IgG Sepharose beads (GE Healthcare, USA) in Bio-spin disposable chromatography columns (Bio-Rad, USA) for binding for 2 hours at room temperature. To ensure efficient binding, the beads were re-suspended several times every 30 minutes. After binding, the beads were washed with 5 mL wash buffer, containing 200 mM 4-(2-hydroxyethyl)-1-piperazineethanesulfonic acid (HEPES) at pH 8.0, 150 mM NaCl, 10% (v/v) glycerol, and 1 mM dithiothreitol (DTT). The ^35S-Pds1 was cleaved from the beads using TEV (Tobacco Etch Virus) protease in 1x TEV buffer (Invitrogen, USA) for 2 hours at room temperature, and the mixture was re-suspended several times every 30 minutes to promote efficient cleavage. The elution was collected and concentrated by employing an Amicon Ultra filter column (Millipore, Ireland). The concentrated ^35S-Pds1 was collected in a new tube, and stored at -20 °C.
The production of Cdc20 or Cdh1 was prepared by IVT/T reactions, where 16 μL of rabbit reticulocyte lysate, 20 μM L-methionine, 0.4 μg of plasmid DNA, and a volume of nuclease-free ddH2O for a total volume of 20 μL. This freshly synthesized Cdc20 or Cdh1 protein was used directly in all APC/C assays after a 1-hour synthesis reaction at room temperature. The APC/C was purified for enzyme assays from 1 mL of TAP-tagged Cdc16 yeast extract (SCSY51) where extract was mixed with 50 μL 50:50 slurry magnetic beads (Invitrogen, Norway) for 2 hours at 4 °C. After incubation, the beads were washed with 3 mL APC/C wash buffer (200 mM of HEPES, 150 mM of NaCl and 10% (v/v) of glycerol). APC/C bound to IgG magnetic beads was used directly in the enzyme assays.
APC/C assays were performed by adding the reaction contents in following order: 4.3 μL of QAH buffer, 20 μL of rabbit reticulocyte lysate containing Cdc20 or Cdh1 with or without an additional volume of recombinant checkpoint protein(s) or inhibitor peptides, 2.4 μL ubiquitin aldehyde (Boston Biochem, USA), APC/C, 16 μL pre-charged E1/E2/ATP/ubiquitin mix, and 13.3 μL of ^35S-Pds1 with QAH buffer (20 mM HEPES at pH 8.0, 100 mM NaCl, and 1 mM MgCl2). […]

Assay [2] has as its system APC/C - co-factor Cdh1 interaction. Put plainly: Co-factor Cdh1 binding to APC/C (35S-Cdh1, APC/C on IgG beads). Further details: species or system Saccharomyces cerevisiae. Conditions: 220 μM peptide, 1 hour, n = 3, vs buffer only. How it is done:
(§1) One potential mechanism by which Cdc20-derived peptides and Tyc1 inhibit APC/C may be by blocking and/or disrupting the association between the co-factors Cdc20 and Cdh1 and the APC/C holo-enzyme. To test this hypothesis we produced radio-labeled full-length Cdc20 and Cdh1 co-factors by IVT/T and then incubated them with 220 μM Tyc1, DQ36 or PQ65 and APC/C that had been isolated from mitotic yeast extracts on IgG beads. Unbound peptide was washed away, and the amount of the remaining APC/C bound Cdc20 or Cdh1 was quantified. […] These observations indicate that Tyc1 and Mad2-binding motif peptides inhibit APC/C via a similar mechanism, leading to the disruption of the co-factor-APC/C interaction. This similar mechanism of action predicts that co-ever expression of Tyc1 and a Mad2-binding motif peptide in vivo would likely increase a cell’s sensitivity to microtubule poison.
(§2) Fig 14 Mad2-binding motif peptides and Tyc1 disrupt co-factor binding to APC/C and display an additive phenotype for microtubule poison sensitivity when co-ever expressed. A) ^35S-Methionine radio-labeled full-length Cdc20 or Cdh1 were made by IVT/T and pre-incubated with buffer only as a control, or Tyc1, DQ36 or PQ65 at a final concentration of 220 μM. […] The amount of APC/C-bound co-factor was measured by phosphor-imaging (n = 3). […]

The test system of assay [3] is APC/C - co-factor Cdc20 interaction. Put plainly: Co-factor Cdc20 binding to APC/C (35S-Cdc20, APC/C on IgG beads). Also noted: species or system Saccharomyces cerevisiae. To be noted: 220 μM peptide, 1 hour, n = 3, vs buffer only. As for the experimental part:
as §1, §2

Entries after “also recorded” stand apart in the source; their conditions may differ. Ends that are not written are not given here. * marks the point of attachment. Biotin = O=C1N[C@H]2[C@H](CS[C@H]2CCCCC(=O)*)N1

This note sets out measurements from publication PMC5993284, “Peptide inhibitors of the anaphase promoting-complex that cause sensitivity to microtubule poison” (PLoS ONE, 2018).

Consider “DQ36-mut1: DQ36-mut1 where all 5 RILQY residues were changed to alanine AAAAA (Biotin-DMNKAAAAAMPEPPKCSSLRQKSYIMKKRTHYSYQQ)”, for which the “inhibition of APC/C^Cdh1 activity (in words)” value in assay [1] was “displayed a similar loss in the ability to inhibit this APC/C^Cdh1 enzyme activity relative to wild type DQ36”.

B1: PQ65: 65 amino acid residue peptide called PQ65 (Cdc20 169–232) (peptide, UniProt P26309 169-232, looked up, fragment)
chain: PPNASPISHLRAQTKIVFKQNVAEACGLDMNKRILQYMPEPPKCSSLRQKSYIMKKRTHYSYQQ
Take B1: the “amount of APC/C bound co-factor Cdh1 (in words)” value in assay [2] was “caused a significant decrease in the amount of APC/C bound co-factor Cdc20 and Cdh1”. In assay [3], the “amount of APC/C bound co-factor Cdc20 (in words)” value is “caused a significant decrease in the amount of APC/C bound co-factor Cdc20 and Cdh1”. The “inhibition of APC/C^Cdh1 activity (in words)” value in assay [1] is recorded as “observed to inhibit APC/C^Cdh1; also recorded: a significant level of APC/C^Cdh1 inhibition was observed”.
